From the RNAGym collection of RNA variant scans (doi:10.1093/nar/gkz1192)

B1: CPEB3 Ribozyme (parent)
chain: UAACAGGGGGCCACAGCAGAAGCGUUCACGUCGCAGCCCCUGUCAGAUUCUGGUGAAUCUGCGAAUUCUGCUGUAUAUCUC

Variants of: B1
Experiment: self-cleavage, relative activity (ratio to wild type); higher = more cleavage; in vitro, sequencing
Procedure, shortened: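 Relative activity compares each variant's cleaved/total read fraction with that of the unmutated ribozyme. To get these fractions, barcoded CPEB3 ribozyme libraries from rounds of error-prone PCR were transcribed with T7 RNA polymerase for 5 hours at 37°C and then given 15 min of DNase I treatment before EDTA was added. The RNAs were reverse transcribed with template switching and sequenced on Illumina, and DNA sequencing linked barcodes to variants. A minimum of 5 reads applied, and three batches were averaged.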

| Variant | self-cleavage |
| --- | --- |
| C17G A64G | 0.35 |
| C17G A64U | 0.17 |
| C17U C37A | 0.09 |
| A18C U51A | 0.42 |
| A18C U51C | 0.36 |
| G16U A35U | 0.23 |
| G16U A28G | 0.18 |
| G16U A28U | 0.26 |
| G16U G61A | 0.18 |
| A18C A35G | 1.03 |
| A18C A35U | 0.16 |
| A18C U67C | 0.18 |
| G16C U25C | 0.21 |
| C17A G53A | 0.68 |
| G16C A47G | 0.25 |
| C17U A57G | 0.51 |
| C17U A75U | 0.81 |
| A18C C50A | 0.12 |
| A18C C50U | 0.51 |
| G16C U67C | 0.42 |
| C17U G61U | 0.27 |

| Variant | self-cleavage |
| --- | --- |
| A18C U69C | 0.35 |
| A18C U69A | 0.52 |
| G16C A18U | 0.28 |
| C17U C62A | 0.11 |
| G16U U43C | 0.15 |
| C17G U72C | 0.31 |
| C17G U72A | 0.21 |
| C17G U49C | 0.06 |
| C17A U25G | 0.47 |
| C17A U25C | 0.2 |
| C17U U76C | 0.83 |
| G16C U60A | 0.29 |
| G16C U60C | 0.2 |
| G16C G36U | 0.17 |
| G16U A18G | 0.29 |
| C17U A64G | 0.52 |
| C17U A64U | 0.3 |
| C17U A47U | 0.33 |
| A18C U43G | 0.07 |
| A18C U43C | 0.21 |
| A18C U43A | 0.64 |

| Variant | self-cleavage |
| --- | --- |
| C17U | 0.73 |
| C17A | 0.32 |
| C17G | 0.35 |
| C17G U48C | 0.2 |
| G16C A35G | 0.83 |
| A18C U72C | 0.46 |
| A18C U72G | 0.12 |
| A18C U72A | 0.16 |
| A18C A77G | 0.26 |
| C17U U72G | 0.4 |
| C17U U72C | 0.74 |
| C17U U72A | 0.21 |
| A18G A28G | 0.33 |
| A18G A28U | 0.5 |
| A18G A28C | 0.38 |
| A18C C34U | 0.22 |
| G16U U76A | 0.33 |
| C17U U54C | 0.66 |
| G16U U26C | 0.24 |
| G16U U26A | 0.26 |
| C17G A57G | 0.51 |

| Variant | self-cleavage |
| --- | --- |
| C17U U26G | 0.09 |
| C17U U26A | 0.6 |
| C17U U26C | 0.29 |
| G16C G22C | 0.07 |
| C17G A75U | 0.52 |
| A18G A77G | 0.78 |
| A18G A77C | 0.39 |
| A18G A77U | 0.78 |
| C17U U51G | 0.74 |
| C17U U51C | 0.56 |
| C17G U58C | 0.22 |
| C17G C79U | 0.27 |
| C17G U60A | 0.19 |
| C17G U60G | 0.25 |
| G16C A45G | 0.42 |
| G16C A45U | 0.13 |
| A18C A21G | 0.21 |
| C17U U67C | 0.22 |
| C17A U43C | 0.32 |
| A18C G33A | 0.42 |
| A18C G33U | 0.13 |
